Measurements taken from patent publication US20110104143.

B1: Active Caspase-8 (protein)
chain: SESQTLDKVYQMKSKPRGYCLIINNHNFAKAREKVPKLHSIRDRNGTHLDAGALTTTFEELHFEIKPHDDCTVEQIYEILKIYQLMDHSNMDCFICCILSHGDKGIIYGTDGQEAPIYELTSQFTGLKCPSLAGKPKVFFIQACQGDNYQKGIPVETDSEEQPYLEMDLSSPQTRYIPDEADFLLGMATVNNCVSYRNPAEGTWYIQSLCQSLRERCPRGDDILTILTEVNYEVSNKDDKKNMGKQMPQPTFTLRKKLVFPSD
B2: Active Caspase-2 (protein)
chain: GPVCLQVKPCTPEFYQTHFQLAYRLQSRPRGLALVLSNVHFTGEKELEFRSGGDVDHSTLVTLFKLLGYDVHVLCDQTAQEMQEKLQNFAQLPAHRVTDSCIVALLSHGVEGAIYGVDGKLLQLQEVFQLFDNANCPSLQNKPKMFFIQACRGDETDRGVDQQDGKNHAGSPGCEESDAGKEKLPKMRLPTRSDMICGYACLKGTAAMRNTKRGSWYIEALAQVFSERACDMHVADMLVKVNALIKDREGYAPGTEFHRCKEMSEYCSTLCRHLYLFPGHPPT

Experiments:
[1] = biological target: DDX3 (endogenous, full-length human DDX3 in tumor cell lysates), O00571
Sequence of DDX3 (endogenous, full-length human DDX3 in tumor cell lysates), O00571 (O00571 whole entry, looked up): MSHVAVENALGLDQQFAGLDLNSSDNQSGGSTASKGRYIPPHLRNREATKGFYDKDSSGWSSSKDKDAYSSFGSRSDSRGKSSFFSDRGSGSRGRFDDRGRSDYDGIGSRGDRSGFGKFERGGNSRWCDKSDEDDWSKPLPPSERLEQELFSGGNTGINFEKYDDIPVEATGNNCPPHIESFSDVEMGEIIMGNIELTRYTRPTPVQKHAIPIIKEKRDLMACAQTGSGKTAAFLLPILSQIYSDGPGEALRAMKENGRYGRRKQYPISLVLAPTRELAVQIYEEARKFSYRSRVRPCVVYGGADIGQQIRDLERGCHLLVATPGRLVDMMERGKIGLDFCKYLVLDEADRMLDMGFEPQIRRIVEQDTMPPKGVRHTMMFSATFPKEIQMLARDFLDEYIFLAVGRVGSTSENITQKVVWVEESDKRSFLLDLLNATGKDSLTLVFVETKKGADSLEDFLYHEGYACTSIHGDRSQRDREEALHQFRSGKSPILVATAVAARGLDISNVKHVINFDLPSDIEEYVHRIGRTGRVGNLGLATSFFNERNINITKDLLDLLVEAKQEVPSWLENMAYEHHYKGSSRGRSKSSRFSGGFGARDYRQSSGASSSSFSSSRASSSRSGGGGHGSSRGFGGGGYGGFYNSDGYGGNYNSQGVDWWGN

Sequence of cIAP1, Q13490 (Q13490 whole entry): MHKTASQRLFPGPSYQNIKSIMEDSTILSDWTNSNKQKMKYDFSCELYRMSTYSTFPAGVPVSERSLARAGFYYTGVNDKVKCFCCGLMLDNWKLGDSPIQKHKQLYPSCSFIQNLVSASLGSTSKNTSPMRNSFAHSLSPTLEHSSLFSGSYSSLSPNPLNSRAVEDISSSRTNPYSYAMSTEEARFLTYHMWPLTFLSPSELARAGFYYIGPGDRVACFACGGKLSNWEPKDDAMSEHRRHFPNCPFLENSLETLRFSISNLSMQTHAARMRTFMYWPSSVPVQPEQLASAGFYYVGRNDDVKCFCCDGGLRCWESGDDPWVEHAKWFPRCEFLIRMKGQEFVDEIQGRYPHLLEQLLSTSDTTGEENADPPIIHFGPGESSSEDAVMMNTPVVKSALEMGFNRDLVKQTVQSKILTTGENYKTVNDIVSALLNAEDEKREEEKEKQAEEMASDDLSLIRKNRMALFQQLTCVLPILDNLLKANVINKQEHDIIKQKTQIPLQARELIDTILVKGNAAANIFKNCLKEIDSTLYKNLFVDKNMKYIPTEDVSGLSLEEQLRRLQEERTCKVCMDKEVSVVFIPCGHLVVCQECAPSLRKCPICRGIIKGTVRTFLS

Row | Protein | caspase-8 protease activity on the fluorogenic substrate Ac-IETD-AMC (cIAP1, Q13490) | cleavage of DR5-associated DDX3 by active caspase, Western blot with anti-DDX3 antibody [1]
1 | B1 | purified cIAP1 also suppressed caspase-8 protease activity completely | DDX3 cleavage by caspase-8 in resistant cells was highly attenuated compared to sensitive cells
2 | B2 | – | caspase-2 exhibited similar protease potential in both cells
